Substrate in series [1]: O=C1C=CC(=O)C(Cl)=C1
In words: purified protein. As to conditions: pH 5.0; 30.0 °C.

Substrate in series [2]: O=C1C=CC(=O)C=C1
In words: purified protein. As to conditions: pH 4.0; 30.0 °C.

Km and kcat/Km data for one protein are collected here from PMC3315643.

B1: recPDH1 (recombinant pyranose dehydrogenase PDH1) (Macropsalliota meleagris) (protein)
chain: AITYQHPDDLPSGVDYDFIVAGGGTAGLVVASRLSENSNWKVLVIEAGPSNKDAFVTRVPGLASTLGAGSPIDWNYTTIPQDGLDGRSLDYPRAKILGGCSTHNGMVYTRGSKDDWNSWAGIIGDQGLGWDSILPAIKKAEKFTQDFTDQSVKGHIDPSVHGFDGKLSVSAAYSNISFNDLLFETTKELNAEFPFKLDMNDGKPIGLGWTQYTIDNHAERSSSATSYLESTGDNVHVLVNTLVTRVLSASGNGTDFRKVEFAVDANSPKKQLEAKKEVIVAGGVIASPQILMNSGIGERKVLQAVGIDTLIDNPSVGKNLSDQGATSVMFDTTLPSTDFDVDAALTEWTNSHTGPLARGARLNHLTFVRLPDDKLNGQDPSSGKNSPHIEFQFAQITPQVPTLGVPKQAPLPAANSYRLLLQLAVVNLYSISRGSISLSDNNPFTYPLIDLNMFKEDIDIAILREGIRSAGRMFSSKAFKNSVNKFVYPPADATSDEDLDAFLRSSTFSYVHGVGTLSMSPKGASWGVVNPDFKVKGTSGLRVVDASVIPHAPAAHTQLPVYAFAEYASALIAKSYN
On to B1, for which, in the series “purified protein [1]”, the Km (commonly the concentration of substrate that gives half-maximal velocity) was 620 ± 110 µM and the kcat/Km (as a rule, the turnover number divided by the Michaelis constant) is 20900 M⁻¹ s⁻¹. Also, in the series “purified protein [2]”, the Km stood at 1380 ± 280 µM and the kcat/Km was 54400 M⁻¹ s⁻¹.
